From the supplement of paper PMC10724198
± gives the standard deviation of the averaged measurements.

Tested on: Saccharomyces cerevisiae
Assay: protein stability index of tFT-peptide fusion (C-terminal peptide) (PSI (0-1 scale)); higher = more stable (slower turnover)
Settings: genetic background: wild type; temperature: 30 C
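Further: PSI is a weighted mean of sequencing reads over stability bins, variants kept only with over 10 reads, mCherry proximal and sfGFP distal, peptide attached via GGGS linker.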

SFFRFRIPLFPS gave a protein stability index of 0.669 ± 0.065.

In the case of VSIAYARHGDSV, the protein stability index is reported as 0.693 ± 0.028.

Sequence GRESGNPGEPTC has a protein stability index of 0.678 ± 0.012.

LGPLILDGATDC showed a protein stability index of 0.688 ± 0.11.

LPAPPPLPPPHP showed a protein stability index of 0.712 ± 0.065.

PPSPPPPLYPPA showed a protein stability index of 0.683 ± 0.038.

In the case of TSWGSRWLPYAS, the protein stability index is reported as 0.665 ± 0.025.

VSRGRVKETGEE showed a protein stability index of 0.713 ± 0.038.

KSKKDQKKNHKK showed a protein stability index of 0.712 ± 0.0076.

Work on LRGLIDVKSSLK yielded a protein stability index of 0.758 ± 0.052.

Sequence DQDVPLWGLVSM has a protein stability index of 0.682 ± 0.054.

GAAVSGGRARCP showed a protein stability index of 0.712 ± 0.064.

Sequence PPSHGYPPRLIP has a protein stability index of 0.67842 ± 0.00022.

In the case of GGGECLWNKQAV, the protein stability index is reported as 0.687 ± 0.024.

PPPPTPLPPPHD showed a protein stability index of 0.652 ± 0.037.

For VGRTNHSRVFRT, the protein stability index was 0.627 ± 0.035.

For AGLCVSIGVGRG, the protein stability index was 0.652 ± 0.015.

Sequence LGGPGAVWGRGR has a protein stability index of 0.697 ± 0.0084.

GCGFYRTSRVPS gave a protein stability index of 0.717 ± 0.059.

PFRSFSPPPRAP gave a protein stability index of 0.742 ± 0.17.

PPLPPLPLSLSI showed a protein stability index of 0.742 ± 0.093.

With VIVLVQDVALQL the protein stability index was 0.7 ± 0.065.

SRPRLPPSPCLF gave a protein stability index of 0.631 ± 0.032.

With ASVRPCSCSGRQ the protein stability index was 0.715 ± 0.069.

LSPCCFLTSSSF gave a protein stability index of 0.71 ± 0.033.

For RRPPPPSPPPPP, the protein stability index was 0.7095 ± 0.0062.

With WPMYSVIKAQLK the protein stability index was 0.638 ± 0.015.

Sequence VGCRGTIAIGGR has a protein stability index of 0.683 ± 0.0071.

KNRKSPSMNSKE gave a protein stability index of 0.716 ± 0.017.

For EGQVGVGWGWVR, the protein stability index was 0.786 ± 0.12.

For RAKGTGRRLGVA, the protein stability index was 0.676 ± 0.013.

Sequence MAHAYTRKDTRK has a protein stability index of 0.64 ± 0.052.

KNVKETERKVTS was tested, and the protein stability index was 0.565 ± 0.023.

In the case of RRSGILGSSFVF, the protein stability index is reported as 0.75 ± 0.047.

In the case of SPPPHPVHPVPL, the protein stability index is reported as 0.611 ± 0.019.

With RRLRGGTQAEGE the protein stability index was 0.682 ± 0.068.

YLSACLCGGFCS showed a protein stability index of 0.684 ± 0.047.

In the case of LHCPRICYSPHL, the protein stability index is reported as 0.715 ± 0.059.

Work on WGQSMFSLLVSI yielded a protein stability index of 0.542 ± 0.035.

VPEMFSSGIKGG was tested, and the protein stability index was 0.653 ± 0.072.

For DTDLWFASVFSS, the protein stability index was 0.793 ± 0.022.

RSTDKLLGLKKM gave a protein stability index of 0.652 ± 0.073.

GFLPDSKVKNPF was tested, and the protein stability index was 0.673 ± 0.029.

LERKRKYSPHDQ gave a protein stability index of 0.677 ± 0.025.

In the case of MVVLSGVLPVGD, the protein stability index is reported as 0.642 ± 0.0077.

With GYLNSCADKNKV the protein stability index was 0.664 ± 0.028.

RSGPRMNVNRTL was tested, and the protein stability index was 0.646 ± 0.11.

FLSLFCFFLPFF was tested, and the protein stability index was 0.646 ± 0.02.

GGWCGSGGVVRG showed a protein stability index of 0.675 ± 0.12.

Sequence CVCPLPLDSPVS has a protein stability index of 0.629 ± 0.081.

RAGRVRAPGRWP gave a protein stability index of 0.728 ± 0.017.

With LLAFSPFLPLPP the protein stability index was 0.667 ± 0.046.

Sequence VDRRCTGLISSS has a protein stability index of 0.668 ± 0.05.

For LLLRLAASSSLS, the protein stability index was 0.703 ± 0.027.

In the case of VYSLQSFSVRRY, the protein stability index is reported as 0.704 ± 0.018.

QGERHCCILVST gave a protein stability index of 0.555 ± 0.025.

ESGGGGGGGRER showed a protein stability index of 0.5726 ± 0.0016.

In the case of IFINAGGYTHTN, the protein stability index is reported as 0.726 ± 0.067.

In the case of VPVALWEAPAVH, the protein stability index is reported as 0.601 ± 0.013.

Work on PSLSPSPRITSS yielded a protein stability index of 0.65 ± 0.077.

With LLRFRSFPSAFF the protein stability index was 0.723 ± 0.084.

Work on KCCRRPPPAFRS yielded a protein stability index of 0.725 ± 0.034.

Sequence RLPLAPFSVTTH has a protein stability index of 0.699 ± 0.1.

VGLGGGVRLGRL showed a protein stability index of 0.786 ± 0.09.

TPASSLFRCASR was tested, and the protein stability index was 0.656 ± 0.028.

Work on TESGKEKLDVIS yielded a protein stability index of 0.689 ± 0.007.

Sequence GTCQALARRTGD has a protein stability index of 0.686 ± 0.061.

Sequence HNRADKLQTTIE has a protein stability index of 0.69 ± 0.033.

QVFKHVKHIEFD gave a protein stability index of 0.725 ± 0.062.

RVLSAASATRMT showed a protein stability index of 0.619 ± 0.013.

SVGGWIARTAIV showed a protein stability index of 0.661 ± 0.011.

Sequence HRDRPYTPLSRF has a protein stability index of 0.722 ± 0.13.

Sequence MGGKGRGGRREI has a protein stability index of 0.666 ± 0.041.

Sequence GRGSCVRISSEG has a protein stability index of 0.706 ± 0.028.

With PICAWGRPRTPM the protein stability index was 0.7639 ± 0.0017.

With GAPRYRLQRPVP the protein stability index was 0.672 ± 0.029.

With SHTIVPNPLKLV the protein stability index was 0.576 ± 0.019.

Work on RDSKDMTWISTS yielded a protein stability index of 0.6755 ± 0.0024.

Work on GAEPTPYVAEAI yielded a protein stability index of 0.701 ± 0.026.

Sequence CGWCCVVCSCLV has a protein stability index of 0.602 ± 0.06.

Sequence APPPLPPARSPP has a protein stability index of 0.6541 ± 0.0056.

VLGLLFLLCVFM gave a protein stability index of 0.6436 ± 0.0038.

GREGTEIGKWRE gave a protein stability index of 0.74 ± 0.12.

Work on RIKRTMNEKIRK yielded a protein stability index of 0.68 ± 0.0041.

KDNMQFLHLYAS gave a protein stability index of 0.707 ± 0.075.

In the case of SSPLRLAPTEPS, the protein stability index is reported as 0.6927 ± 0.0039.

Sequence GVLRDRAFLTCA has a protein stability index of 0.618 ± 0.028.

For LTFGAPGACGLG, the protein stability index was 0.719 ± 0.024.

With VLTGFTGSAIIG the protein stability index was 0.682 ± 0.03.

EKRQNLKPMRTV gave a protein stability index of 0.686 ± 0.026.

With GWWCGGGGAWSG the protein stability index was 0.719 ± 0.041.

With IWLHFKGSRSLP the protein stability index was 0.703 ± 0.16.

PPPHPPPPLPPP gave a protein stability index of 0.617 ± 0.01.

Sequence RSKHNEDRVVYI has a protein stability index of 0.709 ± 0.093.

DAPSPPLTGVSR gave a protein stability index of 0.645 ± 0.01.

Work on LTATNEARNIDH yielded a protein stability index of 0.659 ± 0.027.

Sequence DMYLPSSSHPPP has a protein stability index of 0.712 ± 0.021.

FLCNSRSICGDG was tested, and the protein stability index was 0.6774 ± 0.0033.

Sequence RGFVVGGGGWLG has a protein stability index of 0.706 ± 0.051.

In the case of VFSALAYVVFKG, the protein stability index is reported as 0.598 ± 0.032.

VRNVVYWEFVVE gave a protein stability index of 0.585 ± 0.063.
